Experimental data reported in patent publication US8119117.

Target: CD40 receptor on dendritic cells (mouse) (UniProt P27512)
Assay: cell-based or functional assay

Chain of UniProt P27512 (P27512 20-289): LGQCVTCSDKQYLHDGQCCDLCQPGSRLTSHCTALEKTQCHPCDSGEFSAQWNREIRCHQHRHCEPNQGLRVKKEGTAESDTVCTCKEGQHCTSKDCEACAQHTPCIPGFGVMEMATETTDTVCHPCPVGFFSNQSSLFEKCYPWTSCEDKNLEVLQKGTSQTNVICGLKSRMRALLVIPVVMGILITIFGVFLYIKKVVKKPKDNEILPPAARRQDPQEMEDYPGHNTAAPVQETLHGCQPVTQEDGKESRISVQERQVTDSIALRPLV

## E7-ΔCtΔTmCD40L fusion protein (secreted; HPV type 16 E7, 10 amino acid linker, murine CD40 ligand residues 52-260) (from UniProt P03129 1-98; P27548 52-260)
  IFN-γ released by DCs exposed to the vector (ELISA), first 24 hours: 335 pg
  IL-12 produced by DCs exposed to the vector (ELISA), 24 h (pg/2×10^5 cell/ml/24 h): 18
  IL-12 produced by DCs exposed to the vector (ELISA), 48 h (pg/2×10^5 cell/ml/48 h): 88
